Results on 29 sequences are retold here after the Immune Epitope Database (IEDB).

One assay has as its target HLA-A*23:01. Nature of the assay: IEDB peptide-MHC binding, purified MHC/competitive/radioactivity; filed as Kd, often an IC50 or EC50 that approximates it; ≥ and ≤ were set here for values at or beyond the usual limits of such assays.
The target in the next assay is HLA-A*30:02. The description is as above.
The target in a further assay is HLA-A*01:01. Described as above.
A further assay has as its target HLA-A*24:02. Described as above.
The next assay addresses HLA-A*29:02. The assay is described as above.
In a further assay the target is HLA-A*26:01. Described as above.
Assay [1] has as its target HLA-B*40:01. Nature of the assay: IEDB peptide-MHC binding, purified MHC/direct/fluorescence; filed as Kd, often an IC50 or EC50 that approximates it; ≥ and ≤ were set here for values at or beyond the usual limits of such assays. Conditions: source organism: SARS-CoV1.
A further assay has as its target HLA-B*44:03. Nature of the assay: IEDB peptide-MHC binding, purified MHC/competitive/radioactivity; filed as Kd, often an IC50 or EC50 that approximates it; ≥ and ≤ were set here for values at or beyond the usual limits of such assays.
Assay [2] deals with HLA-B*40:01. Described as above.
The next assay deals with HLA-B*44:02. The assay is described as above.
The target in assay [3] is HLA-B*15:01. Described as above.
The target of assay [4] is HLA-B*15:01. Briefly: IEDB peptide-MHC binding, purified MHC/direct/fluorescence; filed as Kd, often an IC50 or EC50 that approximates it; ≥ and ≤ were set here for values at or beyond the usual limits of such assays. As to conditions: source organism: Mammarenavirus lassaense.
A further assay has as its target HLA-B*46:01. The assay is described as above. As to conditions: source organism: Mammarenavirus lassaense.
For a further assay, the target named is HLA-B*57:01. The description is as above. Conditions: source organism: Bacillus mycoides.
A further assay concerns the target HLA-B*58:01. The description is as above. Conditions: source organism: Bacillus mycoides.
The target in the next assay is HLA-A*32:01. Nature of the assay: IEDB peptide-MHC binding, purified MHC/competitive/radioactivity; filed as Kd, often an IC50 or EC50 that approximates it; ≥ and ≤ were set here for values at or beyond the usual limits of such assays. Conditions: source organism: Dengue virus 3 Martinique/1243/1999.
A further assay concerns the target HLA-A*11:01. Described as above. As to conditions: source organism: Triticum aestivum.
Another assay deals with HLA-A*03:01. The assay is described as above. As to conditions: source organism: Triticum aestivum.
For a further assay, the target named is HLA-A*68:01. The description is as above. Conditions: source organism: Triticum aestivum.
A further assay has as its target HLA-A*31:01. The description is as above. Conditions: source organism: Triticum aestivum.
Another assay concerns the target HLA-A*33:01. Described as above. Conditions: source organism: Triticum aestivum.
Setting [5] is: source organism: SARS coronavirus Tor2.
[6] abbreviates: source organism: Dengue virus 1 Brazil/97-11/1997.
Where [7] appears, read: source organism: Dengue virus 4 Philippines/H241/1956.
Where [8] appears, read: source organism: Dengue virus 3 Martinique/1243/1999.
The mark [9] stands for this setting: source organism: Vaccinia virus WR.
The mark [10] stands for this setting: source organism: Vaccinia virus Copenhagen.
[11] abbreviates: source organism: Dengue virus 1 Singapore/S275/1990.
Setting [12] is: source organism: Dengue virus 2 Jamaica/1409/1983.
[13] abbreviates: source organism: Triticum aestivum.

The term Kd denotes the constant that tells how readily two partners part at equilibrium. As for AEDMLNPNY, the Kd with HLA-A*23:01 (setting [5]) is at least 77800 nM; with HLA-A*30:02 (setting [5]), 12900 nM; in the assay with HLA-A*01:01 (setting [5]) it was at least 87700 nM; in the assay with HLA-A*24:02 (setting [5]) it was at least 77600 nM; in the assay with HLA-A*29:02 (setting [5]) it was 3800 nM; with HLA-A*26:01 (setting [5]), at least 86900 nM. The Kd with HLA-B*40:01 [1] came to 4390 nM.

Take AETQHGTVL: the figures for the Kd with HLA-B*44:03 (setting [6]) and in the assay with HLA-B*40:01 [2] (setting [6]) were 52.7 nM and 0.32 nM, respectively.

In the case of ASLVMLLVHY, the Kd was at least 70100 nM with HLA-B*44:03 (setting [7]), 1900 nM with HLA-A*30:02 (setting [7]) and 1830 nM with HLA-A*01:01 (setting [7]).

For EEESEGAIW, the Kd with HLA-B*44:03 (setting [8]) was determined as 67.7 nM; with HLA-B*44:02 (setting [8]), 33.7 nM.

EENMDVEIW: the Kd stood at 123 nM in the assay with HLA-B*44:03 (setting [6]) and 82.8 nM in the assay with HLA-B*44:02 (setting [6]).

Turning to ERRYVNVHF, the Kd with HLA-B*15:01 [3] (setting [9]) is 7380 nM.

On to FIRMLILNF, for which the Kd in the assay with HLA-B*15:01 [3] (setting [10]) was found to be 7450 nM.

For FQYSDRRWCF, the figures for the Kd with HLA-A*23:01 (setting [6]), with HLA-B*15:01 [3] (setting [6]) and with HLA-A*24:02 (setting [6]) were 272 nM, 3.88 nM and 2480 nM, respectively.

As for FSHDHIGHG, in the assay with HLA-B*15:01 [3] (setting [9]), the Kd worked out at 31.9 nM.

In the case of GAIDLCRHF, in the assay with HLA-B*15:01 [3] (setting [9]), the Kd turned out to be 117 nM.

GESSPSPTV: the Kd in the assay with HLA-B*40:01 [2] (setting [8]) is 9.6 nM; in the assay with HLA-B*44:02 (setting [8]) it was 744 nM.

GEVGAIALDF: the values for the Kd in the assay with HLA-B*44:03 (setting [6]) and with HLA-B*44:02 (setting [6]) were 23.5 nM and 21.5 nM, respectively.

As to HEHKSTWHY, the Kd was found to be 9.11 nM with HLA-B*44:03 (setting [11]) and 19.8 nM with HLA-B*44:02 (setting [11]).

In the case of IMGIPYCNY, the Kd in the assay with HLA-B*15:01 [4] was 43 nM; with HLA-B*46:01 it was at least 20000 nM.

With IMMLKLLTDF, in the assay with HLA-B*15:01 [3] (source organism: Dengue virus 1 Nauru/West Pac/1974), the Kd worked out at 18.8 nM.

On to IQKETLVTF, for which the Kd in the assay with HLA-A*23:01 (setting [12]) is 40.5 nM; with HLA-B*15:01 [3] (setting [12]) it was 1.61 nM; with HLA-A*24:02 (setting [12]) it was 1560 nM.

As for ISKTSIACF, the Kd with HLA-B*15:01 [3] (setting [10]) amounted to 10800 nM.

For the sequence ITFQSILGY, the Kd in the assay with HLA-B*57:01 amounted to 70.7 nM; with HLA-B*58:01, 57.3 nM.

As to KAYLYTEYF, the Kd with HLA-B*15:01 [3] (setting [9]) came to 7.64 nM.

Take KEEESEGAIW: the results for the Kd in the assay with HLA-B*44:03 (setting [8]) and in the assay with HLA-B*44:02 (setting [8]) were 90.9 nM and 58.4 nM, respectively.

Consider KEGDQYVYM, for which the dissociation constant (Kd) with HLA-B*40:01 [2] (setting [6]) was 397 nM.

In the case of KEISNMLNIM, the Kd with HLA-B*40:01 [2] (setting [11]) was determined as 8.34 nM.

As for KEISSMLNI, the Kd with HLA-B*44:03 (setting [6]) turned out to be 76.6 nM; with HLA-B*40:01 [2] (setting [6]) it was 262 nM; with HLA-B*44:02 (setting [6]) it was 38.9 nM.

Take KEYCVECYM: in the assay with HLA-B*15:01 [3] (setting [9]), the Kd was 4620 nM.

KIRCEITSF: in the assay with HLA-B*15:01 [3] (setting [9]), the Kd was 4.28 nM.

In the case of KLITQFETY, the figures for the Kd with HLA-B*15:01 [3] (setting [8]), with HLA-A*30:02 (setting [8]) and in the assay with HLA-A*32:01 were 20.2 nM, 7780 nM and 202 nM, respectively.

As for KSQVLQQSTY, the Kd was at least 39000 nM with HLA-A*23:01 (setting [13]); at least 22100 nM with HLA-A*11:01; at least 21700 nM in the assay with HLA-A*03:01; at least 70200 nM with HLA-A*68:01; 260 nM with HLA-A*30:02 (setting [13]); at least 47200 nM with HLA-A*31:01. The Kd in the assay with HLA-A*01:01 (setting [13]) was 678 nM; with HLA-A*24:02 (setting [13]) it was at least 70300 nM; in the assay with HLA-A*33:01, at least 70000 nM; with HLA-A*29:02 (setting [13]), 12000 nM; with HLA-A*26:01 (setting [13]), at least 102000 nM.

Regarding LEFFLIVLL, the results for the Kd with HLA-B*44:03 (setting [12]) and with HLA-B*40:01 [2] (setting [12]) were 17600 nM and 123 nM, respectively.

For the sequence LETLMLVAL, the Kd in the assay with HLA-B*40:01 [2] (setting [7]) is 3.49 nM; with HLA-B*44:02 (setting [7]) it was 1100 nM.
